Reference: patent US20050048600A1

Target: human LH3 protein with His-tag at the amino-terminus, produced in Sf9 cells (human) (UniProt O60568)
Test: cell-based or functional assay

human LH3 protein with His-tag at the amino-terminus, produced in Sf9 cells (human), sequence (O60568 25-738): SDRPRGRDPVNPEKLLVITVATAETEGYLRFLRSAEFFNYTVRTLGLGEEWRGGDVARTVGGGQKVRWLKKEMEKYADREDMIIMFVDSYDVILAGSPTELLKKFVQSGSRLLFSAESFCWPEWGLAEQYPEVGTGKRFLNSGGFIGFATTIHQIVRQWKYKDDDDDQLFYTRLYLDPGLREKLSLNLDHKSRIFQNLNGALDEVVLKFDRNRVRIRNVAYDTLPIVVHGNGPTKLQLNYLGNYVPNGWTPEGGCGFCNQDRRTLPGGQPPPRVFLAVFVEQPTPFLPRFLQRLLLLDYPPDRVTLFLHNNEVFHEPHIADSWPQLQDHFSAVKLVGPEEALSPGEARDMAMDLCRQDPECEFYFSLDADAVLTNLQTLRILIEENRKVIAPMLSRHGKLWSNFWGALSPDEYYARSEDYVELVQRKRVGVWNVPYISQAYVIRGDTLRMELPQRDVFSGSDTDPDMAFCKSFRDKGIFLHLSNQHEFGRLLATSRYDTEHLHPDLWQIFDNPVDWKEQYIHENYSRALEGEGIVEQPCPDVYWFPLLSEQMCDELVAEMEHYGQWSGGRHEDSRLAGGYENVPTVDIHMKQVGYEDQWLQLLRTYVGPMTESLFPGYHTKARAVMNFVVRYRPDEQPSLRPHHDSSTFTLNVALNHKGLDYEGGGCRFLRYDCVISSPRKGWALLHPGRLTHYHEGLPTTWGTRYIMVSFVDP

Q: How did the GGT activity in the presence of antibody (% of activity with nonimmune serum) turn out when “monoclonal antibodies against His-tag (Clontech) (antibody)” was run?
A: 100%
